{
  "source": "patent US20210252159A1",
  "about": "“CONJUGATES OF CARTILAGE-HOMING PEPTIDES” (priority 2018, published 2021)",
  "key": {"CIA rats [1]": {"system": "CIA rats", "type": "in vivo", "protocol": "Ankle diameter measurements were recorded daily starting on induction day 9 and continuing for the duration of the study. […] Each treatment was administered on the day of enrollment (study day 0) and repeated daily for 7 days (study day 6). Rats were euthanized 3 h after the final dose and blood and organs were collected for testing."}, "[2]": {"experiment": "Hydrolysis assay of peptide-drug conjugates in PBS (free Dex by LC/MS)", "type": "physicochemical", "settings": "37° C.", "protocol": "In order to determine hydrolysis rates, conjugates can be diluted in PBS, rat plasma, or human plasma and incubated at 37 degrees. Samples can be taken at designated time-points (e.g., 1, 2, 3, 5, 10, 15, 20, 25, 30, 45, 60, or 90 minutes and/or hours after administration). Internal standards such as triamcinolone acetonide (TAA) can be added as an internal standard, and then active agent/TAA can be extracted using acetonitrile, for example. The samples can be dried down, reconstituted, and analyzed by LC/MS. Data can be normalized using Dex AUC/TAA AUC. Percent hydrolysis can be calculated using the average ratio for active agent AUC/TAA AUC at a time point of maximal drug release. A general method can include using a lyophilized, purified peptide-drug conjugates reconstituted in DMSO following production to generate stock solution at 20 mg/mL. Each conjugate stock can be brought to 0.25 mg/mL in each hydrolysis condition (1×DPBS, human plasma and rat plasma) in triplicate and rocked at 37° C. To quantitate free active agent, 100 μl of the hydrolyzed conjugate solution can be transferred into 1 mL acetonitrile at 4° C. at which time all plasma proteins and intact conjugates can precipitate. This can be performed repeatedly to generate a series of time points (0 hr, 0.5 hr, 1 hr, 2 hr, 4 hr, 6 hr, 8 hr, 24 hr, 32 hr). The acetonitrile solution can be spun at 17,000 g for 5 minutes, and the supernatant removed and added to a 96 well block. The pellet can then be resuspended in 500 μl acetonitrile and re-pelleted as before. The supernatant can be removed and added to the same well in the block. Samples can be prepared for analysis by drying under a nitrogen stream followed by reconstitution in 110 μl 45:55 ACN:Citrate 10 mM pH 5.5. To ensure optimal recovery the block can be shaken via plate shaker at 7,000 rpm for 5 minutes during the reconstitution step. Prior to LC/MS the samples can be transferred to a 96 well plate and centrifuged at 6,500 g for 15 minutes. Analysis can be performed on an Agilent 1260 Infinity series HPLC with inline 6120 single quad MS using acetonitrile, water (+0.1% TFA) gradient (shown below) on an InfinityLab Poroshell SB-C18 column. Quantification of free active agent (or drug) can be achieved through integration of active agent peaks of the TIC.\nLyophilized, purified peptide-drug conjugates were reconstituted in DMSO following production to generate stock solution at 20 mg/mL. Each conjugate stock was brought to 0.25 mg/mL in each hydrolysis condition (1×DPBS, human plasma and rat plasma) in triplicate and rocked at 37° C.\nTo quantitate free dexamethasone (Dex), 100 μl of the hydrolyzed conjugate solution was transferred into 1 mL acetonitrile at 4° C. at which time all plasma proteins and intact conjugates precipitated. This was performed repeatedly to generate a series of time points (0 hr, 0.5 hr, 1 hr, 2 hr, 4 hr, 6 hr, 8 hr, 24 hr, 32 hr). The corticosteroid triamcinolone acetonide (25 μl, 0.1 mg/mL in 45:55 ACN:Citrate 10 mM pH 5.5) was supplemented into the acetonitrile solution as an internal standard. The acetonitrile solution was spun at 17,000 g for 5 minutes, and the supernatant removed and added to a 96 well block. The pellet was resuspended in 500 μl acetonitrile and re-pelleted as before. The supernatant was removed and added to the same well in the block.\nSamples were prepared for analysis by drying under a nitrogen stream followed by reconstitution in 110 μl 45:55 ACN:Citrate 10 mM pH 5.5. To ensure optimal recovery the block was shaken via plate shaker at 7,000 rpm for 5 minutes during the reconstitution step. Prior to LC/MS the samples were transferred to a 96 well plate and centrifuged at 6,500 g for 15 minutes. Analysis was performed on an Agilent 1260 Infinity series HPLC with inline 6120 single quad MS using a gradient of 0.1% TFA in acetonitrile (solvent B), and 0.1% TFA (aq) (solvent A) gradient (shown below) on an InfinityLab Poroshell SB-C18 column. […]"}, "[3]": {"experiment": "Hydrolysis assay of peptide-drug conjugates in rat plasma (free drug by LC/MS)", "type": "in vitro ADME", "settings": "37° C."}, "CIA rats [4]": {"system": "CIA rats", "type": "in vivo", "settings": "0.05 mg/kg on study day 0 and day 1", "protocol": "A study was conducted in CIA rats to address the following: 1) functionality and duration of effect for peptide(SEQ ID NO: 105)-carbamate-Dex at 0.2 mg/kg as compared to Dex alone at the same dose; 2) functionality and duration of effect for peptide(SEQ ID NO: 105)-DMA-Dex at 0.05 mg/kg as compared to Dex alone at the same dose; 3) systemic markers of Dex exposure in rats treated with each PDC and Dex at their respective doses (FIG. 16B-FIG. 16G).\nCIA was induced as described above in EXAMPLE 21. Rats were enrolled in the study following onset of arthritis in at least one ankle and randomly assigned into one of five treatment groups (vehicle; peptide-carbamate 0.2 mg/kg; Dex 0.2 mg/kg; peptide-DMA conjugate 0.05 mg/kg; Dex 0.05 mg/kg) with 5 rats per group. Treatment was administered on study day 0 and study day 1 and rats were euthanized on study day 7. The primary read-out in this cohort was change in ankle diameter during and after treatment, as a measure of functionality and duration of effect. […] The primary read-out for this cohort was measures of systemic exposure to Dex which included thymus weight, spleen weight, total white blood cell counts, lymphocyte counts, and change in body weight."}, "[5]": {"settings": "0.05 mg/kg daily for 7 days, study day 6"}},
  "note": "Read-outs that look alike come from different tables or passages of the source. Positions of bridges follow the written chain, without caps; N, C: chain ends. Residues, ends and D or L forms follow the SMILES beside them. *: point of attachment. X1 = CC(CCC(C)C(=O)*)C(=O)OCC(=O)[C@@]1(O)[C@H](C)C[C@H]2[C@@H]3CCC4=CC(=O)C=C[C@]4(C)[C@@]3(F)[C@@H](O)C[C@@]21C",
  "data": [
    {"smiles": "CC[C@H](C)[C@@H]1NC(=O)[C@@H]2CSSC[C@H](NC(=O)[C@H](CCCNC(=N)N)NC(=O)[C@@H](NC(=O)[C@H](CC(N)=O)NC(=O)[C@@H](NC(=O)[C@@H]3CCCN3C(=O)[C@@H](NC(=O)CNC(=O)[C@H](CO)NC(=O)CNC(=O)C(C)CCC(C)C(=O)OCC(=O)[C@@]3(O)[C@H](C)C[C@H]4[C@@H]5CCC6=CC(=O)C=C[C@]6(C)[C@@]5(F)[C@@H](O)C[C@@]43C)C(C)C)[C@@H](C)CC)C(C)C)C(=O)N[C@@H](CCCNC(=N)N)C(=O)NCC(=O)N[C@@H](CO)C(=O)N[C@@H](CCCNC(=N)N)C(=O)N[C@@H](CC(=O)O)C(=O)N[C@H]3CSSC[C@H](NC(=O)[C@H](CCCNC(=N)N)NC(=O)[C@H](CO)NC(=O)[C@H](CC(N)=O)NC1=O)C(=O)N[C@@H](Cc1c[nH]cn1)C(=O)N[C@H](C(=O)N[C@H](C(=O)N1CCC[C@H]1C(=O)O)[C@@H](C)O)CSSC[C@H](NC(=O)[C@@H]1CCCN1C(=O)[C@H](CC(=O)O)NC(=O)[C@H](CC(C)C)NC3=O)C(=O)N[C@@H](CCCNC(=N)N)C(=O)N[C@@H](CCCNC(=N)N)C(=O)N[C@@H](C)C(=O)NCC(=O)N[C@@H](CCSC)C(=O)N[C@@H](CCCNC(=N)N)C(=O)N[C@@H](Cc1ccccc1)C(=O)NCC(=O)N[C@@H](CCCNC(=N)N)C(=O)N2", "note": "(stereo partly drawn) [Compound 27, peptide(SEQ ID NO: 105)-[dimethyladipic acid]-Dex] (X1-GSGVPINVRCRGSRDCLDPCRRAGMRFGRCINSRCHCTP-OH; disulfide 10-30, 16-35, 20-37 (inferred); C-terminus assumed)", "values": [
      {"measurement": "plasma lymphocyte counts as compared to DexSP", "setting": "CIA rats [1]; 0.05 mg/kg", "value": "significantly higher"},
      {"measurement": "spleen weight as compared to DexSP", "setting": "CIA rats [1]; 0.05 mg/kg", "value": "significantly higher"},
      {"measurement": "plasma lymphocyte counts as compared to vehicle", "setting": "CIA rats [1]; [5]", "value": "significantly reduced"},
      {"measurement": "spleen weight as compared to vehicle", "setting": "CIA rats [1]; [5]", "value": "significantly reduced"},
      {"measurement": "thymus weight as compared to vehicle", "setting": "CIA rats [1]; [5]", "value": "significantly reduced"},
      {"measurement": "ankle inflammation", "setting": "CIA rats [1]; highest dose of 0.05 mg/kg daily for 7 days", "value": "effective at reducing ankle inflammation"},
      {"measurement": "ankle inflammation", "setting": "CIA rats [1]; lower doses (0.001, 0.005, 0.01 mg/kg) daily for 7 days", "value": "indistinguishable from vehicle"},
      {"measurement": "Half-life (hours) as measured in the hydrolysis experiments", "setting": "[2]; PBS, release of free Dex, time points to 32 hr", "value": "undetectable ≤32"},
      {"measurement": "Hydrolysis half-life", "setting": "[2]; in PBS, free Dex", "value": "No Dex release ≤32 h"},
      {"measurement": "half-life at 0.25 mg/mL", "setting": "[3]; Rat Plasma, release of free Dex, time points to 32 hr, read-out: Half-life (hours) as measured in the hydrolysis experiments (converted)", "value": 9.9, "unit": "h"},
      {"measurement": "half-life at 0.25 mg/mL", "setting": "[3]; in rat plasma, free Dex, read-out: Hydrolysis half-life (converted)", "value": 9.9, "unit": "h"},
      {"measurement": "ankle diameter as compared to vehicle; magnitude and duration of effect", "setting": "CIA rats [4]", "value": "significant reduction"}
    ]}
  ]
}
